Experimental data as given in article PMC7698151, “Evidence for Pentapeptide-Dependent and Independent CheB Methylesterases” (International Journal of Molecular Sciences, 2020).
Like-named read-outs stand apart in the source and are kept apart here.

Columns and labels:
[1] = target: McpB (Aer2) pentapeptide (Pseudomonas aeruginosa); conditions: cited from earlier work
[2] = target: Tar methylation site (Escherichia coli) (UniProt P07017); conditions: cited from earlier work
[3] = target: Tar pentapeptide (Escherichia coli); conditions: cited from earlier work
[4] = target: P. aeruginosa PAO1 CheB2 D55E mutant (Pseudomonas aeruginosa PAO1) (UniProt Q9I6V9); assay: ITC
[5] = target: Tar pentapeptide (Escherichia coli); conditions: cited from earlier work; remark: listed apart in the source

Sequence of CheR (P07364 whole entry): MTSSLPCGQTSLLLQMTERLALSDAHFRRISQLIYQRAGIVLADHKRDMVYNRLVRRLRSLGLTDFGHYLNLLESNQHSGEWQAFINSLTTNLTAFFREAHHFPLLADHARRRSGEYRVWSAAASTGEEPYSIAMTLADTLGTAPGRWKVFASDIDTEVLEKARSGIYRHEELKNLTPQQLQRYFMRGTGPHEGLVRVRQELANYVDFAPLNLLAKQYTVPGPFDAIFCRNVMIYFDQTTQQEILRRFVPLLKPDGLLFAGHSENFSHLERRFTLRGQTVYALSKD
Sequence of CheB (P07330 whole entry): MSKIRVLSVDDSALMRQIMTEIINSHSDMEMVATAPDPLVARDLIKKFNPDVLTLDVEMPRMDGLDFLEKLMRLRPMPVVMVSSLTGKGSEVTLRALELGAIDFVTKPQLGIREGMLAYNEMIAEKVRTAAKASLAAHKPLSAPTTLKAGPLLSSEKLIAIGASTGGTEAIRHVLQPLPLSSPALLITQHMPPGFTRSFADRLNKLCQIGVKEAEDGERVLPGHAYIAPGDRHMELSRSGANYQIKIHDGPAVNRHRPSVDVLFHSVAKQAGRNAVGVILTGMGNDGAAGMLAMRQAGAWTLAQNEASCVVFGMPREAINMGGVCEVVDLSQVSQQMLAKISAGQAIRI

In the case of CheR2 (from UniProt Q9I6V7), the Kd [1] is listed as 0.52 µM.
In the case of CheR (from UniProt P07364), the Kd [2] is listed as 150 µM and the Kd [3] is listed as 2 µM.
With “[…] pentapeptide of the McpB (Aer2) chemoreceptor” the Kd [4] was 56 µM.
In the case of CheB (from UniProt P07330), the Kd [5] is listed as 145 µM.
